{"source": "paper PMC7166197", "about": "(Molecular cell, 2020)", "binders": {"B1": {"name": "TraR (natural protein, Escherichia coli)", "chain": "SDEADEAYSVTEQLTMTGINRIRQKINAHGIPVYLCEACGNPIPEARRKIFPGVTLCVECQAYQERQRKHYA"}}, "molecular_target": "RNA polymerase β subunit of Escherichia coli (Escherichia coli, UniProt P0A8V2 1-1342)", "sequence (P0A8V2 whole entry)": "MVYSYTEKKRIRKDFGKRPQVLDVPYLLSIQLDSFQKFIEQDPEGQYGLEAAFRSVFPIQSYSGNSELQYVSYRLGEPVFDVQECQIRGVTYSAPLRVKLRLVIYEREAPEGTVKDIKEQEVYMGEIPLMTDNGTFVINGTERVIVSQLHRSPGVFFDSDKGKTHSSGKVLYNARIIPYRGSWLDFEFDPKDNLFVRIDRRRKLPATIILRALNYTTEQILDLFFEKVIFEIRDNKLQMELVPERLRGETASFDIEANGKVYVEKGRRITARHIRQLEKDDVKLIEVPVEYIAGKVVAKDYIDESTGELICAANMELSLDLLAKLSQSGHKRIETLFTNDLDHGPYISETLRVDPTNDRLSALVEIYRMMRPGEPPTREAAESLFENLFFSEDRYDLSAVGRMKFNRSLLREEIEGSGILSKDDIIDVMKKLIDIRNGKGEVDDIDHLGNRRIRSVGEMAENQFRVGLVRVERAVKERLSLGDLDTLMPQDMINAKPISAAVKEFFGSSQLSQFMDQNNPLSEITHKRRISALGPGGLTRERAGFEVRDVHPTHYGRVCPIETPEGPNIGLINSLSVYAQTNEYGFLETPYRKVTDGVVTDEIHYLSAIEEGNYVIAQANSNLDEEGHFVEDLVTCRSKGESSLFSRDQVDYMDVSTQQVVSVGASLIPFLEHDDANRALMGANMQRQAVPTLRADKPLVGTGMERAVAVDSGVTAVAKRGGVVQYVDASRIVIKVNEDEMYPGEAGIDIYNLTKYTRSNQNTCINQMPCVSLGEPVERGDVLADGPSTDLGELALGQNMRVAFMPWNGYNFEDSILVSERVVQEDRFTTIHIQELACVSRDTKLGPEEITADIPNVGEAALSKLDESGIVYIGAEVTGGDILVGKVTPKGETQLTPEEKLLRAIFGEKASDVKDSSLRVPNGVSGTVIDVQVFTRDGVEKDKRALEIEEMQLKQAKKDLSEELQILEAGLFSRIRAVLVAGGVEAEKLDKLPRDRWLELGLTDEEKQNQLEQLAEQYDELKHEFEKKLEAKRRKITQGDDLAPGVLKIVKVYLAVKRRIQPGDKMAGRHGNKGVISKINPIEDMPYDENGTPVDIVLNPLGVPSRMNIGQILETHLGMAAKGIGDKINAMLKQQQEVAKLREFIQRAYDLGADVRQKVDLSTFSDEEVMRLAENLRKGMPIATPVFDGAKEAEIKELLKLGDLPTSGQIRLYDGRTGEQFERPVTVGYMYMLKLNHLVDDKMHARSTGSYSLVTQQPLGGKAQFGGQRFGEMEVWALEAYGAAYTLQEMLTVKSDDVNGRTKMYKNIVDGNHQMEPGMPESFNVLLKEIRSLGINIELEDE", "assay": "cryo-EM structure"}
{"binder": "B1", "values": [{"measurement": "binding result", "result": "binds"}]}
